According to the supplement of paper PMC9170038:

System: MS2 coat protein
Assay: apparent KD of MS2 coat protein; designed switch direction (-1 OFF switch, 1 ON switch): -1; higher = weaker reporter binding
In short: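 RNA switches sharing common flanks were transcribed by stalled E. coli RNA polymerase on Illumina chips. A doubling series of SNAP-549-labelled MS2 coat protein, from 0.7 or 1.5 nM to 3 µM, was applied in Tris-HCl pH 7.5 buffer with KCl, MgCl2, BSA, DTT, tRNA and Tween-20. Each step lasted 0.8–1.5 h at the bottom of the series and 10–20 min at the top. Normalised cluster fluorescence was curve-fitted, giving apparent KD as the per-design median over clusters.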

[1] = Eterna round: R95, input ligand: FMN 200 uM
[2] = Eterna round: R95, input ligand: microRNA oligo, concentration not stated
[3] = Eterna round: R95, input ligand: none
[4] = input ligand: microRNA oligo, concentration not stated

Sequence	apparent KD of MS2 coat protein (input ligand: FMN 200 uM)	apparent KD of MS2 coat protein (input ligand: none)	apparent KD of MS2 coat protein [1]	apparent KD of MS2 coat protein [2]	apparent KD of MS2 coat protein [3]	apparent KD of MS2 coat protein [4]
AAAUCUGAGGAGGAUAUGGUAUAGGAAAUGGUGCCAGAAGGUUUCACAUGAGGAUCACCCAUGUCAAAUAGUGA [EX6 #63] (Eterna round: R97, puzzle: Exclusion 6)	45.7 nM	52.5 nM				
AAAUGCAAGCAAAGAUUCUACAUGAGGAUCACCCAUGUGCUCGUCUUAUAAAGUACUAUCACGAAAGUGAUAGUACA [Sensor 3, v1 - 34] (puzzle: Sensor v3, turn-off variant 1)			18.2 nM	88.3 nM	17.6 nM	
AAAUGCAAGUAAAGAUCCUACAUGAGGAUCACCCAUGUGCUCGUCUUAUAAAGUACUAUCACGAAAGUGAUAGUACA [Sensor 3, v1 - 21] (puzzle: Sensor v3, turn-off variant 1)			161 nM	30.2 nM	211 nM	
AAAUGGCAAGGAUAUACAGUAAUGAGGCUUAUGUCCGCUAAACAUGAGGAUCACCCAUGUAGAAGGUGCAAAGA [Maarear] (Eterna round: R97, puzzle: Exclusion 2)	69.1 nM	42.4 nM				
AAAUUAAUGGUAAGGAUAUGAUGCAGGAAACUGCGUCAGAAGGUACAUGAGGAUCACCCAUGUUAAACUAAUUU [Explosion 9 - Jieux - Brourd's mod of Exclusion 4] (Eterna round: R97, puzzle: Brourd's mod of Exclusion 4)	18.2 nM	14.2 nM				
AAAUUGGUAGAGGAUAUCGGACAGGAUUUACUGCGAGAAGGCUGCACAUGAGGAUCACCCAUGUUUUGUUGCGA [EX6 #34] (Eterna round: R97, puzzle: Exclusion 6)	23.9 nM	25.7 nM				
AAAUUGGUAGAGGAUAUCGUACAGGAAACAAUGCGAGAAGGCUGCACAUGAGGAUCACCCAUGUUCAGUUGCGA [EX6 #40] (Eterna round: R97, puzzle: Exclusion 6)	16.8 nM	15.2 nM				
AAAUUGGUAGAGGAUAUCGUACAGGAAACACUGCGAGAAGGCUGCACAUGAGGAUCACCCAUGUUCAGUUGCGA [EX6 #39] (Eterna round: R97, puzzle: Exclusion 6)	17.3 nM	14.5 nM				
AAAUUGGUAGAGGAUAUCGUACAGGAAACGAUGCGAGAAGGUUGCACAUGAGGAUCACCCAUGUUUAGUUGCGA [EX6 #43] (Eterna round: R97, puzzle: Exclusion 6)	23.3 nM	20.8 nM				
AAAUUGUGAGGAUAUUAGUUGUACGUCAAUAGACGUAUAAGUGAGAAGGCACAUGAGGAUCACCCAUGUUCCUG [Omei Ex4 Mod of Mat's R95 mod of Omei] (Eterna round: R97, puzzle: Exclusion 4)	61.8 nM	16.8 nM				
AAAUUUGGAGGAUAUUCAUUGGGAAACAUGAGGAUCACCCAUGUGAUAUAAGGGAAAUCCGGAGAAGGCUAAAUUU [-17.1, -14.1 kcal, 37% A] (Eterna round: R97, puzzle: Exclusion 5)	30.7 nM	28.2 nM				
AACAAACAUGAGGAUCACCCAUGUCAGGAUAUGCACAAACAAACAAACAAACAAGCAAGCAGAAGGGACACAAC [Amethyst 89] (Eterna round: R96, puzzle: Exclusion 1)	34.7 nM	24.8 nM				22.4 nM
AACAAGCAAGGAUAUACCGGAGGUGUGUCCUCACCUAAGGGACUUGAGGAUCACCCAAGUAGAAGGUGCAACAA [Raxela] (Eterna round: R97, puzzle: Exclusion 2)	41.5 nM	141 nM				
AACAAGCUUUUUUGAUGAAUGAUAGUAGGUAGCUCCUUUACAUGAGGAUCACCCAUGUUUGUGUAGCUCGAUCUUUU [JR_SV3TOV2_Sub077] (puzzle: Sensor v3, turn-off variant 2)			12.7 nM	16.2 nM	12.1 nM	
AACACAUGAGGAUAUACAUGAGGAUCACCCAUGUUGUCACUACACCCGGGUGCCUGGUGUAGAAGGCAUGAAGA [Eternabot (Original) Solution 30] (Eterna round: R97, puzzle: Exclusion 3)	71.2 nM	34.1 nM				
AACACUGCAGGAUAUACAUGAGGAUCACCCAUGUGAUCCGAUAACUCCCACGGGAGGAGUAGAAGGGUAAAAGG [Eternabot (Original) Solution 6] (Eterna round: R97, puzzle: Exclusion 3)	170 nM	264 nM				
AACAGCACAGGAUAUACAUGAGGAUCACCCAUGUGAGAAUUAAGUAGAUUGCCACAGAGUAGAAGGGUGCUGGA [Ruby 99] (Eterna round: R96, puzzle: Exclusion 3)	88.9 nM	38.9 nM				36.4 nM
AACAGCAGCUUUUUGCGCAACAUGAGGAUCACCCAUGUUGCAUGAGCAGCGUCGGGAGGUACCGGUUUCGUUUUGUC [Eternabot (L1) Solution 45] (Eterna round: R97, puzzle: Sensor, turn-off variant 1)	18.7 nM	18.1 nM				

Sequence	apparent KD of MS2 coat protein (input ligand: FMN 200 uM)	apparent KD of MS2 coat protein (input ligand: none)	apparent KD of MS2 coat protein [1]	apparent KD of MS2 coat protein [2]	apparent KD of MS2 coat protein [3]	apparent KD of MS2 coat protein [4]
AACAGUCUAGAGGAUAUGCUGGAUAAAUAUCUGGCAGAAGGCUGGACAUGAGGAUCACCCAUGUAAAUACUACC [Omei Ex6 A1b] (Eterna round: R97, puzzle: Exclusion 6)	99.6 nM	38.6 nM				
AACAGUCUAGAGGAUAUGCUGGAUUAAUAUCUUGCAGAAGGCUGGACAUGAGGAUCACCCAUGUAAAUACUACC [Omei Ex6 A12] (Eterna round: R97, puzzle: Exclusion 6)	94 nM	31.9 nM				
AACAGUCUAGAGGAUAUGUUGGAUUAAUAUCUGGCAGAAGGCUGGACAUGAGGAUCACCCAUGUAAAUACUACC [Omei Ex6 A14] (Eterna round: R97, puzzle: Exclusion 6)	98.7 nM	34.4 nM				
AACAUACAUGAGGAUCACCCAUGUGAGGAUAUGAGAGUCAACUCGAGAGAGUUGAUUCUCAGAAGGCACAUAAA [JR_Ex1_Sub065] (Eterna round: R97, puzzle: Exclusion 1)	226 nM	67.5 nM				
AACAUGAGGAUCACCCAUGUGAACCUCCUAAAAUACGACCGGUAGGAUAUACGAAAGAGCCGGAAGUAGAAGGACCGGUUAAAA [Esusale] (Eterna round: R96, puzzle: Exclusion NG 3)	460 nM	158 nM				96.1 nM
AACAUGGCAGAGGAUAUAGGACGCUGGCAUAAACUAGAAGGCUGCACAUGAGGAUCACCCAUGUGUUCCAAAAC [Atquisuson] (Eterna round: R97, puzzle: Exclusion 6)	38.6 nM	22.6 nM				
AACAUGUCAGGAUAUGUGACAUGGCUCUUCGGAGCAAGAUCACAGAAGGGACAUGAGGAUCACCCAUGUCGAUC [Ex4-3: 28] (puzzle: Exclusion 4)				32.7 nM		
AACAUGUGAGGAUAUGUCACAUGGCUCUUCGGAGCAAGAUGACAGAAGGCACAUGAGGAUCACCCAUGUGCAUC [Ex4-3: 27] (puzzle: Exclusion 4)				11.6 nM		
AACCAGCGAGGAUAUGCUUGCGCGUGUUCUAGUUGAAAUCGACUUGAGGAUCACCCAAGUAGAAGGCGCAGCCG [EX2 #48] (Eterna round: R97, puzzle: Exclusion 2)	83.9 nM	43.9 nM				
AACCAGCGAGGAUAUGCUUGCGCGUGUUCUGGUUAUAAUCGACUUGAGGAUCACCCAAGUAGAAGGCGCUGCCG [EX2 #52] (Eterna round: R97, puzzle: Exclusion 2)	179 nM	64.2 nM				
AACCAGCGAGGAUAUUGUCGGUACAACAUGAGGAUCACCCAUGUCACGUGAUCUUCCCAACAAGAAGGUGCACUAC [Axeedesza] (Eterna round: R97, puzzle: Exclusion 5)	324 nM	272 nM				
AACCAGCGAGGAUAUUGUUGGUAAAACAUGAGGAUCACCCAUGUCACGUGAUCUUCCCAACAAGAAGGUGCACUAA [Isrierin] (Eterna round: R97, puzzle: Exclusion 5)	183 nM	46.7 nM				
AACCCAAUGGCAGGAUAUAGUAGACGACUCGGUCUAGAAGGGCCGCACAUGACAUGAGGAUCACCCAUGUUUCAUCUGAGGGAC [Eternabot solution 27] (Eterna round: R96, puzzle: Exclusion NG 1)	14.1 nM	19.4 nM				14 nM
AACCCGUGUGUCAGGAUAUUGAGUCAGACUGGCUACAAGAAGGGACAUGAGGAUCACCCAUGUACUUAGAGAAA [BmEX4 B.22] (Eterna round: R97, puzzle: Brourd's mod of Exclusion 4)	37.8 nM	17.9 nM				
AACCCUCGUCAAGGAUAUACAUAGAAAAGCUUGGUAGAAGGUGACAUGAGGAUCACCCAUGUAUAAAGUUCGUCCAAUCGAACC [Diesisra] (Eterna round: R96, puzzle: Exclusion NG 1)	139 nM	110 nM				80.9 nM
AACCCUCGUGUUAGGAUAUCCAGCGUCCGGGCGAGGGAGAAGGGACAUGAGGAUCACCCAUGUUUCGAUGGACA [Xeinesed] (Eterna round: R97, puzzle: Brourd's mod of Exclusion 4)	19.5 nM	19 nM				
AACCGGGCGGCAGGAUAUCCAGAUUAAUUGUGGUAGUCCUGACAUGAGGAUCACCCAUGUGAAAAGGAGAAGGGCCGGAAAUUA [Onona] (Eterna round: R96, puzzle: Exclusion NG 2)	437 nM	122 nM				64.1 nM
